Results as given in PMC8096239, “Nse5/6 is a negative regulator of the ATPase activity of the Smc5/6 complex”.

Target: Smc5/6 holo-complex (S5-S6-N2/N1-N3-N4);Nse5/6 (Saccharomyces cerevisiae;Saccharomyces …, UniProt Q08204;Q12749;P38632;Q07913;Q05541;P43124;Q03718;P40026 …, |)
Assay: EMSA; purified super-complex containing Nse5/6; no significant perturbation vs holo-complex; EMSA: 200 nM hairpin, 20 mM HEPES-NaOH pH 7.5, 150 mM NaCl, 0.5 mM TCEP, 30 min at 4 C; 0.8% TBE-agarose gel, 50 V, 3 h, 4 C
Settings: protein: recombinant;recombinant, tags: Smc5-FLAG, Smc6-AVI-HIS, HA-Nse2, HIS-TEV-Nse1, Nse3 untagged, Nse4-HALO-Myc;Nse5-C.tag (GAAEPEA), HIS-3C-Nse6, copies: 1;1;1;1;1;1;1;1, label: fluorescein on position 5 of thymine, 6-carbon spacer, 48 bp stem, 4 nt loop AATA, blunt end

B1: oligonucleotide C, self-annealed dsDNA hairpin (structured_DNA)
DNA: ATCAGTACTTGTCAACACGAGCAGCCCGTATATTCTCCTACAGCACTAAATATAGTGCTGTAGGAGAATATACGGGCTGCTCGTGTTGACAAGTACTGAT
modifications: internal fluorescein-dT (iFT), between S3 and S4 (position 51, in loop)
binding result: binds
